Experiment: yeast display, Sf9 membrane polyspecificity reagent, FACS + sequencing; frameworks hold sequencing errors
Method in brief: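 Nanobodies from a synthetic yeast display library (Saccharomyces cerevisiae BJ5465), induced 36–48 hours with galactose, were stained 1 hour at 4 °C with 10% biotinylated, detergent-solubilized Sf9 membrane reagent, enriched on streptavidin microbeads, then FACS-sorted. Anti-HA (expression) and streptavidin (reagent binding) fluorescence set low and high (top ~1%) gates. Polyreactivity labels come from the gate of origin. Genes were colony-PCR amplified, MiSeq 2 × 250 sequenced and filtered by CDR length.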

QVQLVESGGGLVQAGGSLRLSCAASGVYAMGWYRQAPGQEREWVAAITSVGSTNYADSVKGRFTISRDNAKNTVYLQMNSLKPEDTAVFYCNTDRDTDELDYWGQGTQVTVSS
polyreactivity (PSR sort gate): low polyreactivity

QVQLVESGGGLVQAGGSLRLSCAASGWYRQAPGKERELVAAITYSGGSTYYADSVKGRFTISRDNAKNTVYLQMNSLKPEDTAVYYCAKQGLWIFVVVEMDYWGQGTQVTVSS
polyreactivity (PSR sort gate): low polyreactivity

QVQLVESGGGLVQAGGSLRLSCAASGYIFADNDMGWYRQAPGKERELVASIDWSGGSTYYADSVKGRFTISRDNAKNTVYLQMNSLKPEDTAVYYCNKGAFGGVSSYIYWAFYSGYDYWGLGTQVTVSS
polyreactivity (PSR sort gate): low polyreactivity

QVQLVESGGGLVQAGGSLRLSCAASGYIFAGNAMGWYRQAPGKERELVAAINSDGRTYYADSVRGRFTISRDNAKNSVYLQMNSLKPEDTAVYYCAVVRFYLGDYLVEFDYWGQGTQVTVSS
polyreactivity (PSR sort gate): low polyreactivity

QVQLVESGGGLVQAGGSLRLSCAASGYIFAPYAMGWYRQAPGKERELVAAISSGGSTYYADSVKGRFTISRDNAKNTVYLQKNSQKPEDPAVYYCAKRYIYSYYWGQGTQVTVSS
polyreactivity (PSR sort gate): high polyreactivity

QVQLVESGGGLVQAGGSLRLSCAASGYIFCGYAMGWYRQAPGKERELVAAINRGGSTYYADSVKGRFTISRDNAKNTVYLQMNSLKPEDTAVYYCAARLLYYNSIKRYYWGQGTQVTVSS
polyreactivity (PSR sort gate): high polyreactivity

QVQLVESGGGLVQAGGSLRLSCAASGYIFDDNAMGWYRQAPGKERELVATNYADSVKGRFTISRDNAKNTVYLQMNSLKPEDTAVYYCAKDVWQTYTDLDHWGQGTQVTVSS
polyreactivity (PSR sort gate): low polyreactivity

QVQLVESGGGLVQAGGSLRLSCAASGYIFDNNAMGWYRQAPGKERELVAAINWSGGSTYYADSVKGRFTISRDNAKNTVYLQMNSLKPEDTAVYYCNKLIYGIYYPERYAYDYWGQGTQVTVSS
polyreactivity (PSR sort gate): low polyreactivity

QVQLVESGGGLVQAGGSLRLSCAASGYIFDVYAMGWYRQAPGKERELVATISSGTGITKYADSVKGRFTISRDNAKNTVYLQMNSLKPEDTAVYYCAADYASLSWLGFYYWGQGTQVTVSS
polyreactivity (PSR sort gate): low polyreactivity

QVQLVESGGGLVQAGGSLRLSCAASGYIFEYYAMGWYRQAPGKERELVAAISVGGGSTYYADSVKGRFTISRDNAKNTVYLQMNSLKPEDTAVYYCAAVQLYQKHQITYVAHEYWGQGTQVTVSS
polyreactivity (PSR sort gate): low polyreactivity

QVQLVESGGGLVQAGGSLRLSCAASGYIFFANAMGWYRPAPGKERELVAAISSDGRTYYADSVKGRFTISRDNAKNTVYLQMNRLKPEDTAVYYCAAYFSGLTYGYYVAGYDYWGQGTQVTVSS
polyreactivity (PSR sort gate): low polyreactivity

QVQLVESGGGLVQAGGSLRLSCAASGYIFFGNAMGWYRQAPGKERELVAAIRRRGTSTYYADSVKGRFTISRDNAKNTVYLQMNSLKPEDTAVYYCAADVVRSNFYGTFLYDYDYCGQGTQVTVSS
polyreactivity (PSR sort gate): low polyreactivity

QVQLVESGGGLVQAGGSLRLSCAASGYIFFRNAMGWYRQAPGKEREFVAAIRFSGGNTYYADSVKGRFTISRDNAKNTVYLQMNSLKPEDTAFYYCAADKVRQGHYWTPMEYWGQGTQVTVSS
polyreactivity (PSR sort gate): low polyreactivity

QVQLVESGGGLVQAGGSLRLSCAASGYIFGAYAMGWYRQAPGKERELVAGITASGDSTYYADSVKGRFTISRDNAKNTVYLQMNSLKPEDTAVYYCNAQPDIGLYDRQWKEPYEYWGQGTQVTVSS
polyreactivity (PSR sort gate): low polyreactivity

QVQLVESGGGLVQAGGSLRLSCAASGYIFGGYAMGWYRQAPGKERELVAAISRSGGSTYYADSVKGRFTISRDNAKNTVYLQMNSLKPEDTAVYYCAVRGYTLRYGYWGQGTQVTVSS
polyreactivity (PSR sort gate): high polyreactivity

QVQLVESGGGLVQAGGSLRLSCAASGYIFGNYAMGCYRQAPGKERELVAAISKSGVTTYYADSVKGRFTISRDNAKNTVYLQMNSLKPEDTAVYYCNARSWRPINARYNEYDYWGQGTQVTVSS
polyreactivity (PSR sort gate): low polyreactivity

QVQLVESGGGLVQAGGSLRLSCAASGYIFGRNAMGWYRQAPGKEREFFAAISSSGSSTYYADSVKGRFTISRDKAKNTVYLQMNSLKPEDTAVYYCNADRLRSTHDYWGQGTQVTVSS
polyreactivity (PSR sort gate): high polyreactivity

Source: the nanobody polyreactivity screen of Harvey et al. (2022)
